Patent US20260258113

Target: alpha globin, endogenous, in perfused human omental arteries, P69905
Sequence (P69905 2-142): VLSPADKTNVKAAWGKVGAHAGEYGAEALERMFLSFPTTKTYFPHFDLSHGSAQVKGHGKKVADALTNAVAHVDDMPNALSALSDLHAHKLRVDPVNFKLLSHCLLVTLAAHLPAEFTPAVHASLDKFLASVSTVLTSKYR

B1: endothelial nitric oxide synthase (eNOS), endogenous, in human resistance arteries (protein)
chain: GNLKSVAQEPGPPCGLGLGLGLGLCGKQGPATPAPEPSRAPASLLPPAPEHSPPSSPLTQPPEGPKFPRVKNWEVGSITYDTLSAQAQQDGPCTPRRCLGSLVFPRKLQGRPSPGPPAPEQLLSQARDFINQYYSSIKRSGSQAHEQRLQEVEAEVAATGTYQLRESELVFGAKQAWRNAPRCVGRIQWGKLQVFDARDCRSAQEMFTYICNHIKYATNRGNLRSAITVFPQRCPGRGDFRIWNSQLVRYAGYRQQDGSVRGDPANVEITELCIQHGWTPGNGRFDVLPLLLQAPDDPPELFLLPPELVLEVPLEHPTLEWFAALGLRWYALPAVSNMLLEIGGLEFPAAPFSGWYMSTEIGTRNLCDPHRYNILEDVAVCMDLDTRTTSSLWKDKAAVEINVAVLHSYQLAKVTIVDHHAATASFMKHLENEQKARGGCPADWAWIVPPISGSLTPVFHQEMVNYFLSPAFRYQPDPWKGSAAKGTGITRKKTFKEVANAVKISASLMGTVMAKRVKATILYGSETGRAQSYAQQLGRLFRKAFDPRVLCMDEYDVVSLEHETLVLVVTSTFGNGDPPENGESFAAALMEMSGPYNSSPRPEQHKSYKIRFNSISCSDPLVSSWRRKRKESSNTDSAGALGTLRFCVFGLGSRAYPHFCAFARAVDTRLEELGGERLLQLGQGDELCGQEEAFRGWAQAAFQAACETFCVGEDAKAAARDIFSPKRSWKRQRYRLSAQAEGLQLLPGLIHVHRRKMFQATIRSVENLQSSKSTRATILVRLDTGGQEGLQYQPGDHIGVCPPNRPGLVEALLSRVEDPPAPTEPVAVEQLEKGSPGGPPPGWVRDPRLPPCTLRQALTFFLDITSPPSPQLLRLLSTLAEEPREQQELEALSQDPRRYEEWKWFRCPTLLEVLEQFPSVALPAPLLLTQLPLLQPRYYSVSSAPSTHPGEIHLTVAVLAYRTQDGLGPLHYGVCSTWLSQLKPGDPVPCFIRGAPSFRLPPDPSLPCILVGPGTGIAPFRGFWQERLHDIESKGLQPTPMTLVFGCRCSQLDHLYRDEVQNAQQRGVFGRVLTAFSREPDNPKTYVQDILRTELAAEVHRVLCLERGHMFVCGDVTMATNVLQTVQRILATEGDMELDEAGDVIGVLRDQQRYHEDIFGLTLRTQEVTSRIRTQSFSLQERQLRGAVPWAFDPPGSDTNSP
ROI average fluorescence lifetime after co-labelling with the alpha globin and eNOS antibodies (FLIM, FRET-like shift): the eNOS + HBA ROIs lie at about 2.9 to 3.6 ns, below HBA alone (about 3.6 to 4.2 ns) and eNOS alone (about 3.8 to 4.15 ns); p<0.0001 printed for both comparisons | fluorescence lifetime histogram after co-labelling with the alpha globin and eNOS antibodies (FLIM, FRET-like shift): the co-labelled curve d (HBA + eNOS) peaks at about 3.95 ns, left of HBA only (b, about 4.2 ns), eNOS only (c, about 4.25 ns) and unstained (a, about 4.35 ns)
